Measurements: patent US7241873B2, “Recombinant anti-osteopontin antibody and use thereof” (Juridical Foundation the Chemo-sero-therapeutic Research …, priority 2001, dated 2007)
No end group written: not given here. *: point of attachment. Biotin = O=C1N[C@H]2[C@H](CS[C@H]2CCCCC(=O)*)N1

What was measured:
[1] = target: BSA-crosslinked osteopontin peptide (BSA-CVDTYDGRGDSVVYGLRS) (Homo sapiens, UniProt P10451); assay: ELISA binding to osteopontin peptide
Source text: Based on the concentrations of the humanized 2K1 antibody and the chimera 2K1 antibody as determined in Example 13, the binding activities of the humanized 2K1 antibody and the chimera 2K1 antibody with osteopontin peptide (CVDTYDGRGDSVVYGLRS) (SEQ ID NO: 1) were compared with reference to the ELISA of Kon et al. (Journal of Cellular […]: 420–432 (2002)).
Dilution series of the humanized 2K1 antibody and the chimera 2K1 antibody reacted on a microtiter plate with BSA-crosslinked osteopontin peptide (BSA-CVDTYDGRGDSVVYGLRS)(SEQ ID NO: 1) immobilized thereon. Then, the antibodies bound to BSA-CVDTYDGRGDSVVYGLRS (SEQ ID NO: 1) reacted with protein A-HRP, and finally with TMB (Dojindo Corporate), to measure the absorbance at a wavelength of 450 nm.
Additionally, reaction on a plate with only BSA immobilized thereon as a negative control was also measured in the same manner.
As a negative control, additionally, the binding activity of the chimera 2K1 antibody to BSA (open circle) and the binding activity of the humanized 2K1 antibody to BSA (open square) are also shown.

[2] = target: thrombin-cleaved OPN (human) (UniProt P10451); assay: cell-based or functional assay
Chain of thrombin-cleaved OPN (human) (P10451 17-168 limits assumed, form in doubt, chain 1 of 2): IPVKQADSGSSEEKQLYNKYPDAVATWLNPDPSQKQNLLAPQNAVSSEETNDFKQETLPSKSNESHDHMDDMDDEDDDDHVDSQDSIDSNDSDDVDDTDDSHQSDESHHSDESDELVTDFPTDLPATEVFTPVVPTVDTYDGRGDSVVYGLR
Chain of thrombin-cleaved OPN (human) (P10451 169-314 limits assumed, form in doubt, chain 2 of 2): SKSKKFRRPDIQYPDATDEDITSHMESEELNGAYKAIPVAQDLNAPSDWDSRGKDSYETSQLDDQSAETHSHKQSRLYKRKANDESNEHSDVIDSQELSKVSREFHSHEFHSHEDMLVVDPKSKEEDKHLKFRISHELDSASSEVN

[3] = target: T1, GST-OPN-c (human, UniProt P08515 1-218 = GST; P10451 1-287); assay: Western blotting
T1 construct: Isoform c of human osteopontin; made in E. coli; also called GST fusion protein of human osteopontin-c; not shown: vector-encoded junction between GST and OPN not described
T1 sequence (P08515 1-218, tags or fused parts left off): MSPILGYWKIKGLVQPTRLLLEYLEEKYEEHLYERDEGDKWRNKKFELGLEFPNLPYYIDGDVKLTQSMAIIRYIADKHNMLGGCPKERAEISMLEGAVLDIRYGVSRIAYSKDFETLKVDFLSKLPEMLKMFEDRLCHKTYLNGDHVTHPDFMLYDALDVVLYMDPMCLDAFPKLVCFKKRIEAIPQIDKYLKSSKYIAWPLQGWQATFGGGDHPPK

[4] = target: T2, CHO/OPN-a (human, UniProt P10451 17-314, sugar chain-bound type (glycosylated)); assay: Western blotting
T2 construct: mature; also called full-length OPN
T2 sequence (P10451 17-314): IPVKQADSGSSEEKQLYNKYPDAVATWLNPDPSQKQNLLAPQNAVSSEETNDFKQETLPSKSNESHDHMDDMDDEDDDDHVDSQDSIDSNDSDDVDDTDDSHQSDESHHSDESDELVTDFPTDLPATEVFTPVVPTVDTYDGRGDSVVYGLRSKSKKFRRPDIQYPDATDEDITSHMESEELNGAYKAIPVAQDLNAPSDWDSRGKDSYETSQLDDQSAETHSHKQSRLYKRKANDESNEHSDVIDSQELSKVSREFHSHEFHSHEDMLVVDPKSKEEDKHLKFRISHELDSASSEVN

[5] = target: T3, biotinylated partial peptide GRGDSVVYGLR of human osteopontin (human); assay: SPR BIACORE-2000, biotinylated peptide on sensor chip SA, antibody as analyte, global fitting 1:1 (Langmuir)
T3 construct: Captured on a BIACORE sensor chip SA (23 RU)
T3 peptide: Biotin-GRGDSVVYGLR
Protocol: The KD value of the chimera 2K1 antibody was assayed in the following manner. First, a partial peptide GRGDSV-VYGLR (residues 7–17 of SEQ ID NO: 1) of the human osteopontin was biotinylated with a biotinylation kit (Dojindo Corporate). A sensor chip SA was set on BIA-CORE-2000, to bind 23 RU of a ligand (Bin-GRGDSV-VYGLR)(residues 7–17 of SEQ ID NO: 1). […] The data of these sensor grams were analyzed by global fitting at 1:1 (Langmuir) binding by a BIACORE analysis software BIA Evaluation Version 3.0. FIG. 6a is a sensor gram at various concentrations of the murine 2K1 antibody. FIG. 6b is a sensor gram at various concentrations of the chimera 2K1 antibody.
As the results of the measurement, the KD value of the murine 2K1 antibody was 1.2 ×10^-10 M, while the KD value of the chimera 2K1 antibody was 9.2 ×10^-11 M. No reduction of the affinity of the chimera 2K1 antibody was observed due to the chimera preparation of the murine 2K1 antibody.

[6] = target: T4, bovine serum albumin (bovine, UniProt P02769 25-607); assay: ELISA on a plate with BSA alone, detection with protein A-HRP and TMB, OD450
T4 construct: also called BSA
T4 sequence (P02769 25-607 limits assumed): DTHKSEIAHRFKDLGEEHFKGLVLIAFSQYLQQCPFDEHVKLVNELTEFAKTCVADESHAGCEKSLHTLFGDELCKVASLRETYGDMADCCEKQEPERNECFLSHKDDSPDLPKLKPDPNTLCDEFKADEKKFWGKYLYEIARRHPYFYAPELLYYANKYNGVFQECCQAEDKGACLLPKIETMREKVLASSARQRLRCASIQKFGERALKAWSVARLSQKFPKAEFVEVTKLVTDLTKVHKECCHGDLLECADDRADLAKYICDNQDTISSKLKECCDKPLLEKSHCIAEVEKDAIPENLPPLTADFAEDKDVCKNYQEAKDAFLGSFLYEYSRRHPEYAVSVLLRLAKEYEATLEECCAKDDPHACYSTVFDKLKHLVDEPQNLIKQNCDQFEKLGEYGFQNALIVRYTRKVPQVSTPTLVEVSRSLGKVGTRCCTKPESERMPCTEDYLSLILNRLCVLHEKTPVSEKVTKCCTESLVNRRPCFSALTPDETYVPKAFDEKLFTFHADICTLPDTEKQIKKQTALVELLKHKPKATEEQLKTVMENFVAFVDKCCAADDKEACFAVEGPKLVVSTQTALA

[7] = target: T5, BSA-crosslinked osteopontin peptide BSA-CVDTYDGRGDSVVYGLRS (human, also: crosslinked to BSA, linkage chemistry not given here); assay: ELISA on a plate with BSA-CVDTYDGRGDSVVYGLRS, detection with protein A-HRP and TMB, OD450
T5 construct: Peptide carries an added N-terminal cysteine; immobilized on a microtiter plate as BSA conjugate; also called Peptide 1
T5 peptide: {BSA}-CVDTYDGRGDSVVYGLRS

B1: humanized 2K1 antibody: humanized antibody with CDRs of murine 2K1; VH SEQ ID NO: 28, VL SEQ ID NO: 30, human Igγ1/Igκ (antibody, V domains shown)
VH: MDWTWRVFCLLAVAPGAHSQVQLVQSGAEVKKPGSSVKVSCKASGGTFSDYEMHWVRQAPGQGLEWMGAIHPGRGGTAYNQKFKGRVTITADKSTSTAYMELSSLRSEDTAVYYCARITGYFDVWGQGTTVTVSS
VL: MGWSCIILFLVATATGVHSDVVMTQSPLSLPVTLGQPASISCRSSQSIVHSNGNTYLEWYLQKPGQSPQLLIYKVSNRFSGVPDRFSGSGSGTDFTLKISRVEAEDVGVYYCFQGSHVPLTFGQGTKLEIKR
modifications: human IgG1/kappa constant regions
- antigen binding activity compared with the original murine 2K1 antibody [1]: identical to that of the original murine 2K1 antibody
- binding activity to BSA-CVDTYDGRGDSVVYGLRS ([1]; ELISA, absorbance 450 nm, FIG. 13): had binding activities
- binding activity to BSA (negative control plate) ([1]; ELISA, plate with only BSA immobilized): not to BSA
- comparison of binding activities of both antibodies to BSA-CVDTYDGRGDSVVYGLRS ([1]; humanized versus chimera 2K1 antibody): at the same level

B2: murine monoclonal antibody 2K1 (antibody, V domains shown)
VH: QVQLQQSGAELVRPGASVKLSCKALGYTFTDYEMHWVKQTPVHGLEWIGAIHPGRGGTAYNQKFKGKATLTADKSSSTAYMELSSLTSEDSAVYYCTRITGYFDVWGAGTTVTVSS
VL: DVLMTQTPLSLPVSLGDQASISCRSSQSIVHSNGNTYLEWYLQKPGQSPKLLIYKVSNRFSGVPDRFSGSGSGTDFTLKISRVEAEDLGVYYCFQGSHVPLTFGAGTKLELKR
notes: also called murine 2K1 antibody; murine antibody 2K1
- Mean migrating cell counts per 1 mm^3; monocyte; thrombin-cleaved OPN 10 µg/mL, murine 2K1 antibody 0.4 µg/mL (cells per 1 mm^3) [2]: 258
- Mean migrating cell counts per 1 mm^3; monocyte; thrombin-cleaved OPN 10 µg/mL, murine 2K1 antibody 2 µg/mL (cells per 1 mm^3) [2]: 257
- Mean migrating cell counts per 1 mm^3; monocyte; thrombin-cleaved OPN 10 µg/mL, murine 2K1 antibody 10 µg/mL (cells per 1 mm^3) [2]: 160
- Mean migrating cell counts per 1 mm^3; monocyte; thrombin-cleaved OPN 10 µg/mL, murine 2K1 antibody 50 µg/mL (cells per 1 mm^3) [2]: 75
- Mean migrating cell counts per 1 mm^3; neutrophil; thrombin-cleaved OPN 10 µg/mL, murine 2K1 antibody 0.4 µg/mL (cells per 1 mm^3) [2]: 567
- Mean migrating cell counts per 1 mm^3; neutrophil; thrombin-cleaved OPN 10 µg/mL, murine 2K1 antibody 2 µg/mL (cells per 1 mm^3) [2]: 550
- Mean migrating cell counts per 1 mm^3; neutrophil; thrombin-cleaved OPN 10 µg/mL, murine 2K1 antibody 10 µg/mL (cells per 1 mm^3) [2]: 450
- Mean migrating cell counts per 1 mm^3; neutrophil; thrombin-cleaved OPN 10 µg/mL, murine 2K1 antibody 50 µg/mL (cells per 1 mm^3) [2]: 427
- binding result [3]: binds
- binding result [4]: binds
- Kd [5]: 0.12 nM

B3: mouse-human chimera 2K1 antibody (antibody, V domains shown)
VH: QVQLQQSGAELVRPGASVKLSCKALGYTFTDYEMHWVKQTPVHGLEWIGAIHPGRGGTAYNQKFKGKATLTADKSSSTAYMELSSLTSEDSAVYYCTRITGYFDVWGAGTTVTVSS
VL: DVLMTQTPLSLPVSLGDQASISCRSSQSIVHSNGNTYLEWYLQKPGQSPKLLIYKVSNRFSGVPDRFSGSGSGTDFTLKISRVEAEDLGVYYCFQGSHVPLTFGAGTKLELKR
notes: Expressed in CHO-DG44; also called C2K1 antibody; 2K1 chimera antibody
- binding result [6]: no binding (tested: 50 ng/ml)
- binding result [7]: binds
- Kd [5]: 0.092 nM

B4: humanized 2K1 antibody (antibody, V domains shown)
VH: QVQLVQSGAEVKKPGSSVKVSCKASGGTFSDYEMHWVRQAPGQGLEWMGAIHPGRGGTAYNQKFKGRVTITADKSTSTAYMELSSLRSEDTAVYYCARITGYFDVWGQGTTVTVSS
VL: DVVMTQSPLSLPVTLGQPASISCRSSQSIVHSNGNTYLEWYLQKPGQSPQLLIYKVSNRFSGVPDRFSGSGSGTDFTLKISRVEAEDVGVYYCFQGSHVPLTFGQGTKLEIKR
notes: Human Igγ1 / Igκ constant regions (vectors AG-γ1 and AG-κ); Tested as CHO-DG44 culture supernatant; also called R2K1 antibody
- binding result [6]: no binding (tested: 50 ng/ml)
- binding result [7]: binds
